Consider 4 molecules from patent publication US20220162261A1 (published 2022).

Bridge positions count the residues as written; N and C are the ends. Square brackets hold non-standard residues; d marks the D form. Ends that are not written are not given here. Phe(4-tBu) = CC(C)(C)c1ccc(C[C@H](N)C(=O)O)cc1; NMeR = CN[C@@H](CCCNC(=N)N)C(=O)O; β3hE = N[C@@H](CCC(=O)O)CC(=O)O; Pen = CC(C)(S)[C@H](N)C(=O)O

Assay [1] concerns the target T1, soluble α4β7 integrin (UniProt P13612 34-970; P26010 20-723, limits assumed).
T1 construct: analyte of the SPR experiment
As to the kind of experiment: SPR.

Assay [2] concerns the target T1, soluble α4β7 integrin. The assay can be described thus: SPR, binder on streptavidin chip, soluble α4β7.
Assay [3] addresses T2, human α4β7 integrin on cells (human, UniProt P13612 34-1032; P26010 20-798).
T2 construct: whole, on cells; also called α4β7 cell (Hu); RPMI8866 cells
As to the kind of experiment: RPMI8866/MAdCAM cell adhesion.

In assay [4] the target is T3, rh integrin α4β7 (R&D Systems #5397-A30) (human, UniProt P13612 34-970; P26010 20-723).
T3 construct: bought; coated on a nickel coated plate; also called immobilized α4β7; immobilized α4β7 integrin protein
The assay can be described thus: competition ELISA vs MAdCAM-1, 1 mM Mg. Background: ELISA stands for enzyme-linked immunosorbent assay.

Assay [5] concerns the target T2, human α4β7 integrin on cells. As to the kind of experiment: α4β7 T cells.
For assay [6], the target named is T4, α4β1 (R&D Systems #5668-A4) (UniProt P13612 34-970; P05556 21-728, limits assumed).
T4 construct: bought; also called soluble α4β1
As to the kind of experiment: competition ELISA vs VCAM-1, 1 mM Mg. As to the method: The solution was removed by shaking and then blocked with 250 ul of 1% BSA in 1×PBS per well. The wells were then incubated at room temperature for 1 hr with shaking. Each well was then washed once with wash buffer (50 mM Tris-HCl pH7.6, 100 mM NaCL, 1 mM MnCl2 or MgCl2, 0.05% Tween-20). 25 ul of serial dilutions of peptides starting at […] in assay buffer (Assay buffer: 50 mM Tris-HCl pH7.6, 100 mM NaCl, 1 mM MnCl2 or MgCl2, 0.05% Tween-20) was added to each well. Additionally, 25 ul of α4β1 (R&D Systems #5668-A4) was added to each well at a fixed concentration of 120 nM. The final peptide and α4β1 concentrations were […] and 60 nM, respectively. The plates were then incubated at 37° C. for 2 hr. The solution was then removed by shaking, and each well was washed three times with wash buffer. 50 ul of 9F10 antibody at 4 ug/ml (purified mouse anti-human CD49d, BD Bioscience Cat #555502) was then added to each well, and the plate was incubated at room temperature for 1 hr with shaking. The solution was again removed by shaking, and each well was washed three times with wash buffer. 50 ul of peroxidase-conjugated AffiniPure Goat anti-mouse IgG (Jackson immune research cat #115-035-003) diluted in 1:5000 in assay buffer was added to each well. The plate was incubated at room temperature for 30 min with shaking. […] The reaction was stepped with 2N H₂SO₄ and absorbance was read at 450 nm. […]

In assay [7] the target is T2, human α4β7 integrin on cells. The assay can be described thus: RPMI8866 cell adhesion to MAdCAM-1.
Assay [8] addresses T5, human αLβ2 integrin on cells (human, UniProt P20701 26-1170; P05107 23-769).
T5 construct: whole, on cells; also called aLβ2
As to the kind of experiment: memory T cell adhesion to ICAM-1.

Assay [9] addresses T2, human α4β7 integrin on cells. The assay can be described thus: memory T cell adhesion to MAdCAM-1, average of 4 donors.
Assay [10] deals with T6, human α4β1 integrin on cells (human, UniProt P13612 34-1032; P05556 21-798).
T6 construct: whole, on cells; also called α4β1 cell; Jurkat cells
As to the kind of experiment: memory T cell adhesion to VCAM-1.

For assay [11], the target named is T7, mouse α4β7 integrin on TK1 cells (mouse, UniProt Q00651 41-1039; P26011 20-806).
T7 construct: whole, on cells; also called α4β7 cell (Mu); Cell Adhesion α4β7 Mouse
T7 sequence (Q00651 41-1039, chain 1 of 2): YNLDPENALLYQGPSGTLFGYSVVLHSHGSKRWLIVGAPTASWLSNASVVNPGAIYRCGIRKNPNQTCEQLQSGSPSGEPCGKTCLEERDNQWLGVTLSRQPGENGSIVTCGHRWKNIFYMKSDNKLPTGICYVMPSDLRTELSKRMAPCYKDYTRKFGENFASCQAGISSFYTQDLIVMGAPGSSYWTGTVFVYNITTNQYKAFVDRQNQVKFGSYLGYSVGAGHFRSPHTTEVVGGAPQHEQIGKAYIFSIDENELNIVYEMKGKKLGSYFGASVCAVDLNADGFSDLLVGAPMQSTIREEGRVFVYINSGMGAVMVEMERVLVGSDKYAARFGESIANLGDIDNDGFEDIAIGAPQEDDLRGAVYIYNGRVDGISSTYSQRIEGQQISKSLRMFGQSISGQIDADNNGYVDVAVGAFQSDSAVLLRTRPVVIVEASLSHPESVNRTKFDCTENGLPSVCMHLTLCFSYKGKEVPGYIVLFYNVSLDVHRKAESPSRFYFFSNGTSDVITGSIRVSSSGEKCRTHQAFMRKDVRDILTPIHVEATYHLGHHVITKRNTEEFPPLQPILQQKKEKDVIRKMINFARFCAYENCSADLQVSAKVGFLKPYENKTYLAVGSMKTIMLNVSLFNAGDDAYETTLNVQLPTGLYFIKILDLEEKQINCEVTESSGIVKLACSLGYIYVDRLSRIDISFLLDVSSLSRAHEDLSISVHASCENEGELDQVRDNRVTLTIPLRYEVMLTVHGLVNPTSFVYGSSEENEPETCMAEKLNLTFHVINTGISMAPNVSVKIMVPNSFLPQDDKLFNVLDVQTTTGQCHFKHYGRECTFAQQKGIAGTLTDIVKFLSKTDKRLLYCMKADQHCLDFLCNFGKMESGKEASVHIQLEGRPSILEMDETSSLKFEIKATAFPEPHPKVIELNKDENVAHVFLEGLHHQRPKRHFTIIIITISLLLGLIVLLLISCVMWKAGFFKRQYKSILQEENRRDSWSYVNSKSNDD
T7 sequence (P26011 20-806, chain 2 of 2): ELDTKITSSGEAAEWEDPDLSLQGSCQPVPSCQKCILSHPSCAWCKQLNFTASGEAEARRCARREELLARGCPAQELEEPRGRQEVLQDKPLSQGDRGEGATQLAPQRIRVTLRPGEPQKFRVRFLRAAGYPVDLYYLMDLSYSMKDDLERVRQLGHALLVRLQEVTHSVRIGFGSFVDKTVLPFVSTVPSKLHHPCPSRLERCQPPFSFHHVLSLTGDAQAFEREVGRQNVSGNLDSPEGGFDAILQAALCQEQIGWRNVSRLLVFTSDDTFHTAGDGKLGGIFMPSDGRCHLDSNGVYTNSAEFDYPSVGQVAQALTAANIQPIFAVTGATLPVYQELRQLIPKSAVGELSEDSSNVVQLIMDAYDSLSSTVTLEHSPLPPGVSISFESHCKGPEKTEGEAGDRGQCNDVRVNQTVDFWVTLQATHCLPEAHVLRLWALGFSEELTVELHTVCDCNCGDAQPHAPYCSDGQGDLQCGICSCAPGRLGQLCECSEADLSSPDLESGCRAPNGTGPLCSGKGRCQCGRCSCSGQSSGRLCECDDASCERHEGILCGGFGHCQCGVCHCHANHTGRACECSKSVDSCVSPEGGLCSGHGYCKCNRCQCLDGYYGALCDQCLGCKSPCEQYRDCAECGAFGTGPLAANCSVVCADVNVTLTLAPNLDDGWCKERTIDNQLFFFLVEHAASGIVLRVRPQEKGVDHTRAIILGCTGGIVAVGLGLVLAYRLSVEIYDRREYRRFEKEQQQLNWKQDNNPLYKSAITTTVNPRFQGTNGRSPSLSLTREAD
As to the kind of experiment: TK1 cell adhesion to MAdCAM-1.

The target of assay [12] is T2, human α4β7 integrin on cells. The assay can be described thus: PBMC memory T cell adhesion; acetate salt.
Assay [13] addresses T7, mouse α4β7 integrin on TK1 cells. The assay can be described thus: TK1 cell adhesion to MAdCAM-1; acetate salt.
For assay [14] the target is unchanged. As to the kind of experiment: TK1 cell adhesion to MAdCAM-1. This is another data set of the same source.
Assay [15] deals with T2, human α4β7 integrin on cells. As to the kind of experiment: RPMI8866 cell adhesion to MAdCAM-1; acetate salt.
For assay [16], the target named is T3, rh integrin α4β7 (R&D Systems #5397-A30). The assay can be described thus: competition ELISA vs MAdCAM-1; acetate salt.
For assay [17], the target named is T2, human α4β7 integrin on cells. The assay can be described thus: RPMI8866 cell adhesion to MAdCAM-1. The source holds these as a separate data set.
The target of assay [18] is T3, rh integrin α4β7 (R&D Systems #5397-A30). The assay can be described thus: competition ELISA vs MAdCAM-1.
The target of assay [19] is T6, human α4β1 integrin on cells. The assay can be described thus: Jurkat cell adhesion to VCAM-1.
The target of assay [20] is T4, α4β1 (R&D Systems #5668-A4). The assay can be described thus: competition ELISA vs VCAM-1; acetate salt.
Assay [21] has as its target T2, human α4β7 integrin on cells. The assay can be described thus: PBMC memory T cell adhesion.

T5 sequence (P20701 26-1170, chain 1 of 2): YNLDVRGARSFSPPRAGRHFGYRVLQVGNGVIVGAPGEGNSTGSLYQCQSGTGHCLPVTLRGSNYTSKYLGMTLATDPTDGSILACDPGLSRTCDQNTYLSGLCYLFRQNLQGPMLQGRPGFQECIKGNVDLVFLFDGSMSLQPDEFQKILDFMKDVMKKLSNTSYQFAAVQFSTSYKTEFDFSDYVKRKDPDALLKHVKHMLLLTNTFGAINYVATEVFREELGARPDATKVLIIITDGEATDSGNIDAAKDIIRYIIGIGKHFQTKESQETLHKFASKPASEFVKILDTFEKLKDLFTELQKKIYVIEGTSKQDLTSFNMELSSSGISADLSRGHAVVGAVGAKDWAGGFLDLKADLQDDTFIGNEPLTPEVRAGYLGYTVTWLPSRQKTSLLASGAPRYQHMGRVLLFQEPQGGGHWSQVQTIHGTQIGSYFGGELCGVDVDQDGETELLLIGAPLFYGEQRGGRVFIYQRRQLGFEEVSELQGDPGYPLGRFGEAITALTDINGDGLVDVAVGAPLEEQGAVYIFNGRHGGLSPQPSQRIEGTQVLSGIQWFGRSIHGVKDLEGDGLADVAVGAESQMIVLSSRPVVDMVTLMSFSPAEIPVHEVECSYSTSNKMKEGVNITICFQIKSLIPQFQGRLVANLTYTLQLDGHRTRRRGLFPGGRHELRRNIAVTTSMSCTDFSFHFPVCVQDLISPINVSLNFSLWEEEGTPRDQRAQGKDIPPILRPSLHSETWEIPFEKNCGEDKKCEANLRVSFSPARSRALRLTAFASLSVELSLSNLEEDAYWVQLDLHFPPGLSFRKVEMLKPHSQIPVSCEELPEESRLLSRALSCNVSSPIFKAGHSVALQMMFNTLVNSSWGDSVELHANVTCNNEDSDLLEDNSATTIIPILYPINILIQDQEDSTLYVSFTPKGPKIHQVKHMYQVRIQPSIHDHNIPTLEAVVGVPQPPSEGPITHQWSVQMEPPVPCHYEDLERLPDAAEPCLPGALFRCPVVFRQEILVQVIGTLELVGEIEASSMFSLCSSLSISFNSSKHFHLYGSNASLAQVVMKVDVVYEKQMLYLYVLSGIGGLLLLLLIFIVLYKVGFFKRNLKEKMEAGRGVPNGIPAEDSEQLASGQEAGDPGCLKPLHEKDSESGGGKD
T5 sequence (P05107 23-769, chain 2 of 2): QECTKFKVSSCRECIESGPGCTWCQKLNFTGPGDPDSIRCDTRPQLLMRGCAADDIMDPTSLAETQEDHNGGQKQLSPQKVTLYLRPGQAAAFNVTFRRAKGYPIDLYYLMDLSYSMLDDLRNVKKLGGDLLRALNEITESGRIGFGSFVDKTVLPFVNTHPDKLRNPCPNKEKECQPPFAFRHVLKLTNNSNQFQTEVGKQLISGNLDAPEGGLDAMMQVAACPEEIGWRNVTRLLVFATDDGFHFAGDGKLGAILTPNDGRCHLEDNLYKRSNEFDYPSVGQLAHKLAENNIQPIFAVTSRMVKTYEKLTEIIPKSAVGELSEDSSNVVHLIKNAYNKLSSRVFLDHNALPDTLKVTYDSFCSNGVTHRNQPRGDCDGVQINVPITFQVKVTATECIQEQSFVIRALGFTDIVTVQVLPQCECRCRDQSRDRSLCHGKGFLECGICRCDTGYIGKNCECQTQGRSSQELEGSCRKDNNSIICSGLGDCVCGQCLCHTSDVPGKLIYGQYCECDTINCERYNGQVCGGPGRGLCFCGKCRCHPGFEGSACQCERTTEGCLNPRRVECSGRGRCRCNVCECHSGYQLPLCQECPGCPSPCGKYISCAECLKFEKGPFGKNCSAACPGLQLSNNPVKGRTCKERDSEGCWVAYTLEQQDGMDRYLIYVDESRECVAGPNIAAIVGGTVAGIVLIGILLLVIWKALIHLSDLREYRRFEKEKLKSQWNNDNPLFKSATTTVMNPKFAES

B1: Peptide X-biotin (peptide)
peptide: Ac-[Pen][NMeR]SDTL[Pen][Phe(4-tBu)][β3hE][dK]
modifications: disulfide 1-7; not fully specified (residue 10); also: dimer of two subunits joined by a linker at D-Lys10, biotin attached via PEG linker, position not given here
On to B1, for which the “fold lower KD than biotin-labeled vedolizumab” value with soluble α4β7 integrin [1] amounted to 3.8 fold. For the same molecule, in the assay with soluble α4β7 integrin [2], the Kd (as a rule, the free concentration of one partner at which half of the binding sites on the other are occupied at equilibrium, for simple one-to-one binding) stood at 15.4 nM; the koff (commonly the rate constant with which the complex falls apart) came to 1.73e-05 s⁻¹; the kon (in general, a measure of how fast the partners come together) is 1120 M⁻¹ s⁻¹.

B2: Peptide X Alexa 647 conjugate (peptide)
peptide: Ac-[Pen][NMeR]SDTL[Pen][Phe(4-tBu)][β3hE][dK]
modifications: disulfide 1-7; not fully specified (residue 10); also: Alexa 647 label, position not given here
B2: 0.15 nM corresponded to half-maximal inhibition in assay [3] (IC50).

B3: Peptide X (peptide)
peptide: Ac-[Pen][NMeR]SDTL[Pen][Phe(4-tBu)][β3hE][dK]
modifications: disulfide 1-7; not fully specified (residue 10); printed as [Ac-Pen-(N-Me-Arg)-Ser-Asp-Thr-Leu-Pen-Phe(4-tBu)-(β-homoGlu)-(D-Lys)]2-DIG; also: homodimer via DIG linker on D-Lys side chains
notes: also called Compound X
As for B3, the IC50 – broadly, the concentration that gives 50% inhibition – in [4] was 3 nM; in [5] it was 1 nM; in assay [6] it was > 10000 nM; in assay [7], 0.72 nM; in [8] it was > 100000 nM; in [9], 1.3 nM. Besides, the IC50 is > 100000 nM in [10] and 0.5 nM in assay [11].

B4: SEQ ID NO: 132 (peptide)
peptide: Ac-[Pen][NMeR]SDTL[Pen][Phe(4-tBu)][β3hE][dK]-NH2
modifications: disulfide 1-7; not fully specified (residue 10); printed as (Ac Pen N-Me-R S D T L Pen F(4tBu) b-H-E k NH2)2 DIG, disulfide Pen-Pen; also: homodimer, two subunits joined by DIG linker
notes: the second listing is the acetate salt
For the molecule B4, the IC50 in [12], in [13], in assay [14], in [15], in [16] and in assay [17] was ≤ 10 nM each time. The IC50 is ≤ 10 nM in assay [18], > 100000 nM in [19], > 500 nM in assay [20] and ≤ 10 nM in assay [21].
